Experimental data published in patent US20210238294A1 (JIANGSU HENGRUI MEDICINE, published 2021).
Read-outs that look alike come from different tables or passages of the source.

Key:
Test in all cases: cell-based or functional assay
[1] = target: T1, human IL-4R on cells (HEK-Blue IL-4 cells, TF-1 cells) (human, UniProt P24394 26-825)
[2] = target: T1, human IL-4R on cells (HEK-Blue IL-4 …); remark: listed apart in the source
[3] = target: T1, human IL-4R on cells (HEK-Blue IL-4 …); remark: listed apart in the source
[4] = target: T1, human IL-4R on cells (HEK-Blue IL-4 …); remark: listed apart in the source

Binder	Inhibiting the proliferation of TF-1 cells by IL-4 (IC50) [1]	blocking the binding of HEK293-Blue IL-4 cell (to IL-4) (IC50) [1]	Inhibiting the proliferation of TF-1 cells by IL-4 (IC50) [2]	blocking of the binding of HEK293-Blue IL-4 cell (to IL-4) (IC50) [2]	Inhibiting the proliferation of TF-1 cell by IL-13 (IC50) [3]	Inhibiting the proliferation of TF-1 cells by IL-4 (IC50) [3]	blocking the binding of HEK293-Blue cells (with IL-4) (IC50) [3]	blocking the binding of HEK293-Blue cells (with IL-13) (IC50) [3]	Inhibiting the proliferation of TF-1 cell by IL-4 (IC50) [4]	blocking the binding of HEK293-Blue IL-4 cell (to IL-4) (IC50) [4]
human-mouse chimeric antibody 7B10-C (antibody, V domains shown) VH: QVQLQQPGTELLKPGASVSLSCKASGYTFTSYWMHWVKQRPGQGLEWIGLIHPNSDTTKFSENFKTRATLTIDKSSSTAYMKLSSLTSEDSAVYYCAKSKIITTIVARHWYFDVWGTGTTVTVSS VL: DIVLTQSPPSLAVSLGQRATISCKASQSVDYGGDSYMNWYQQKLGQPPKVLIYAASNLESGIPARFSGSGSGTDFTLNIHPVEEEDVATYYCQHSNENPPTFGGGTKLEIK	0.0464 µg/mL	0.00903 µg/mL	–	–	–	–	–	–	–	–
mouse monoclonal antibody 7B10 (antibody, V domains shown) VH: QVQLQQPGTELLKPGASVSLSCKASGYTFTSYWMHWVKQRPGQGLEWIGLIHPNSDTTKFSENFKTRATLTIDKSSSTAYMKLSSLTSEDSAVYYCAKSKIITTIVARHWYFDVWGTGTTVTVSS VL: DIVLTQSPPSLAVSLGQRATISCKASQSVDYGGDSYMNWYQQKLGQPPKVLIYAASNLESGIPARFSGSGSGTDFTLNIHPVEEEDVATYYCQHSNENPPTFGGGTKLEIK	–	–	0.418 µg/mL	0.0798 µg/mL	–	–	–	–	–	–
Dupilumab (antibody, V domains shown) VH: EVQLVESGGGLEQPGGSLRLSCAGSGFTFRDYAMTWVRQAPGKGLEWVSSISGSGGNTYYADSVKGRFTISRDNSKNTLYLQMNSLRAEDTAVYYCAKDRLSITIRPRYYGLDVWGQGTTVTVSS VL: DIVMTQSPLSLPVTPGEPASISCRSSQSLLYSIGYNYLDWYLQKSGQSPQLLIYLGSNRASGVPDRFSGSGSGTDFTLKISRVEAEDVGFYYCMQALQTPYTFGQGTKLEIKR	0.207 µg/mL	0.00324 µg/mL	0.102 µg/mL	0.00507 µg/mL	0.0181 µg/mL	0.101 µg/mL	0.0125 µg/mL	0.0148 µg/mL	0.491 µg/mL	0.000667 µg/mL
murine monoclonal antibody 25G7 (antibody, V domains shown) VH: EVQLVESGGGLVKPGGSLKLSCAASGFTFSDYGMHWVRQAPEKGLEWVAFISSGSSIIYYADIVKGRSTISRDNAKNTLFLQMTSLRSEDTAMYYCTRGNKRGFFDYWGQGTILTVSS VL: QIVLTQSPALMSASPGEKVTMTCNASSSVSYMYWYQRKPRSSPKPWIYLTSNLASGVPVRFSGSGSGTSYSLTISSMEAEDAATYYCQQWRSNPPMLTFGSGTKLEVK	–	–	0.0513 µg/mL	0.000975 µg/mL	–	–	–	–	–	–
affinity-matured humanized antibody hu25G7-A (antibody, human IgG4 S228P, kappa, V domains shown) VH: EVQLVESGGGLVQPGGSLRLSCAASGFTFSDYGMHWVRQAPGKGLEWVAFISSGSSIIYYADIVKGRSTISRDNAKNTLYLQMNSLRAEDTAVYYCTRGNKRGFFDYWGQGTLVTVSS VL: EIVLTQSPATLSLSPGERATLSCRASSSVPYMYWYQQKPGQAPRLLIYLTSNLASGIPARFSGSGSGTDFTLTISSLEPEDFAVYYCQQWRAYPPMLTFGGGTKVEIKR	–	–	–	–	0.0132 µg/mL	0.0837 µg/mL	0.00649 µg/mL	0.01 µg/mL	–	–
human-mouse chimeric antibody 25G7-C (antibody, V domains shown) VH: EVQLVESGGGLVKPGGSLKLSCAASGFTFSDYGMHWVRQAPEKGLEWVAFISSGSSIIYYADIVKGRSTISRDNAKNTLFLQMTSLRSEDTAMYYCTRGNKRGFFDYWGQGTILTVSS VL: QIVLTQSPALMSASPGEKVTMTCNASSSVSYMYWYQRKPRSSPKPWIYLTSNLASGVPVRFSGSGSGTSYSLTISSMEAEDAATYYCQQWRSNPPMLTFGSGTKLEVK	0.0203 µg/mL	0.00202 µg/mL	–	–	–	–	–	–	–	–
affinity-matured humanized antibody hu25G7-B (antibody, human IgG4 S228P, kappa, V domains shown) VH: EVQLVESGGGLVQPGGSLRLSCAASGFTFSDYGMHWVRQAPGKGLEWVAFISSGSSIIYYADIVKGRSTISRDNAKNTLYLQMNSLRAEDTAVYYCTRGNKRGFFDYWGQGTLVTVSS VL: EIVLTQSPATLSLSPGERATLSCRASPGVPPLAWYQQKPGQAPRLLIYLASSRPSGIPARFSGSGSGTDFTLTISSLEPEDFAVYYCQQWRSNPPMLTFGGGTKVEIKR	–	–	–	–	0.0137 µg/mL	0.051 µg/mL	0.0066 µg/mL	0.00838 µg/mL	–	–
humanized antibody hu25G7 (with VH-c heavy chain and VL-a light chain) (antibody, human IgG4 S228P, kappa, V domains shown) VH: EVQLVESGGGLVQPGGSLRLSCAASGFTFSDYGMHWVRQAPGKGLEWVAFISSGSSIIYYADIVKGRSTISRDNAKNSLYLQMNSLRAEDTAVYYCTRGNKRGFFDYWGQGTLVTVSS VL: EIVLTQSPATLSLSPGERATLSCNASSSVSYMYWYQQKPGQAPRLLIYLTSNLASGIPARFSGSGSGTDFTLTISSLEPEDFAVYYCQQWRSNPPMLTFGGGTKVEIKR	–	–	–	–	–	–	–	–	0.0296 µg/mL	0.000943 µg/mL
humanized antibody hu7B10 (with VH-b heavy chain and VL-b light chain) (antibody, human IgG1, kappa, V domains shown) VH: EVQLVQSGAEVKKPGASVKVSCKASGYTFTSYWMHWVRQAPGQGLEWMGLIHPNSDTTKFSENFKTRVTMTIDTSISTAYMELSRLRSDDTAVYYCAKSKIITTIVARHWYFDVWGQGTTVTVSS VL: DIVLTQTPLSLSVTPGQPASISCKASQSVDYGGDSYMNWYLQKPGQPPQLLIYAASNLESGVPDRFSGSGSGTDFTLKISRVEAEDVGVYYCQHSNENPPTFGGGTKVEIKR	–	–	–	–	–	–	–	–	0.112 µg/mL	0.00687 µg/mL
